Laboratory results: patent US20240398963A1 (priority 2021, published 2024)

Type: physicochemical
Details: 10 mM PBS buffer (pH=7.4), 37° C., 100 rpm shaker; free drug by HPLC, average release per day
Experimental: The drug release and stability experiments were run using the test compounds. About 2.5±1.0 mg/mL (with regard to conjugate) solution of each test compound was prepared with 10 mM PBS buffer (pH=7.4) in Millipore Amicon® Ultra-0.5 ml 30 k Ultrafiltration centrifuge tube. The solution was kept swelling for 1 h at room temperature and then placed in a shaker at 100 rpm, 37° C. for continuous experiment. At the same time point of each day, samples were centrifuged at 10000 rpm for 1 h. The aliquot was transferred to HPLC vial for analysis. An 0.4 mL of 10 mM PBS buffer was added into the centrifuge tube and continue the experiment.
For the HPLC analysis at each time point, the peak areas of all relevant peaks from the chromatograms were retrieved and the concentration of free drug was calculated. Average release of free drug was calculated based on the sum of free drug and numbers of experiment days. The computing equation is as below.
The sample degradation rate was calculated based on the concentration and degree of substitution (NMR) for conjugated drug with regard to the initial starting point of the experiment (at t=0). The computing equation is as below.

Going from “Conjugate of HA and 2-((8S,9S,10R,13S,14S,17R)-17-hydroxy-10,13-dimethyl-3,11-dioxo-6,7,8,9,10,11,12,13,14,15,16,17-dodecahydro-3H-cyclopenta[a]phenanthren-17-yl)-2-oxoethyl 5-aminopentanoate [Example 74]” to “Conjugate of HA and 2-((8S,9S,10R,13S,14S,17R)-17-hydroxy-10,13-dimethyl-3,11-dioxo-6,7,8,9,10,11,12,13,14,15,16,17-dodecahydro-3H-cyclopenta[a]phenanthren-17-yl)-2-oxoethyl 6-aminohexanoate [Example 92]”, the Release rate rises from 4.06 %/day to 8.21 %/day.

First: Conjugate of HA and 4-aminobutyl (2-((6S,8S,9S,10R,11S,13S,14S,17R)-11,17-dihydroxy-6,10,13-trimethyl-3-oxo-6,7,8,9,10,11,12,13,14,15,16,17-dodecahydro-3H-cyclopenta[a]phenanthren-17-yl)-2-oxoethyl) carbonate [Example 68]
Second: Conjugate of HA and 4-aminobutyl (2-((8S,9R,10S,11S,13S,14S,16R,17R)-9-fluoro-11,17-dihydroxy-10,13,16-trimethyl-3-oxo-6,7,8,9,10,11,12,13,14,15,16,17-dodecahydro-3H-cyclopenta[a]phenanthren-17-yl)-2-oxoethyl) carbonate [Example 70]
The Release rate of the first is higher: 8.02 %/day for the first, 3.49 %/day for the second.

Going from “Conjugate of HA and 4-aminobutyl (2-((8S,9R,10S,11S,13S,14S,16S,17R)-9-fluoro-11,17-dihydroxy-10,13,16-trimethyl-3-oxo-6,7,8,9,10,11,12,13,14,15,16,17-dodecahydro-3H-cyclopenta[a]phenanthren-17-yl)-2-oxoethyl) carbonate [Example 72]” to “Conjugate of HA and 4-aminobutyl (2-((8S,9S,10R,11S,13S,14S,17R)-11,17-dihydroxy-10,13-dimethyl-3-oxo-2,3,6,7,8,9,10,11,12,13,14,15,16,17-tetradecahydro-1H-cyclopenta[a]phenanthren-17-yl)-2-oxoethyl) carbonate [Example 64]”, the Release rate falls from 7.86 %/day to 7.61 %/day.

First: Conjugate of HA and 4-aminobutyl (2-((8S,9S,10R,11S,13S,14S,17R)-11,17-dihydroxy-10,13-dimethyl-3-oxo-6,7,8,9,10,11,12,13,14,15,16,17-dodecahydro-3H-cyclopenta[a]phenanthren-17-yl)-2-oxoethyl) carbonate [Example 62]
Second: Conjugate of HA and 4-aminobutyl (2-((8S,9S,10R,13S,14S,17R)-17-hydroxy-10,13-dimethyl-3,11-dioxo-2,3,6,7,8,9,10,11,12,13,14,15,16,17-tetradecahydro-1H-cyclopenta[a]phenanthren-17-yl)-2-oxoethyl) carbonate [Example 66]
The Release rate of the first is lower: 0.14 %/day for the first, 11.18 %/day for the second.

Going from “Conjugate of HA and 4-aminobutyl (2-((8S,9S,10R,13S,14S,17R)-17-hydroxy-10,13-dimethyl-3,11-dioxo-6,7,8,9,10,11,12,13,14,15,16,17-dodecahydro-3H-cyclopenta[a]phenanthren-17-yl)-2-oxoethyl) carbonate [Example 60]” to “Conjugate of HA and 5-aminopentyl (2-((6S,8S,9S,10R,11S,13S,14S,17R)-11,17-dihydroxy-6,10,13-trimethyl-3-oxo-6,7,8,9,10,11,12,13,14,15,16,17-dodecahydro-3H-cyclopenta[a]phenanthren-17-yl)-2-oxoethyl) carbonate [Example 86]”, the Release rate falls from 15.04 %/day to 6.93 %/day.

First: Conjugate of HA and 5-aminopentyl (2-((8S,9R,10S,11S,13S,14S,16R,17R)-9-fluoro-11,17-dihydroxy-10,13,16-trimethyl-3-oxo-6,7,8,9,10,11,12,13,14,15,16,17-dodecahydro-3H-cyclopenta[a]phenanthren-17-yl)-2-oxoethyl) carbonate [Example 87]
Second: Conjugate of HA and 5-aminopentyl (2-((8S,9S,10R,11S,13S,14S,17R)-11,17-dihydroxy-10,13-dimethyl-3-oxo-2,3,6,7,8,9,10,11,12,13,14,15,16,17-tetradecahydro-1H-cyclopenta[a]phenanthren-17-yl)-2-oxoethyl) carbonate [Example 90]
The Release rate of the first is higher: 6.96 %/day for the first, 4.56 %/day for the second.

Going from “Conjugate of HA and 5-aminopentyl (2-((8S,9S,10R,11S,13S,14S,17R)-11,17-dihydroxy-10,13-dimethyl-3-oxo-6,7,8,9,10,11,12,13,14,15,16,17-dodecahydro-3H-cyclopenta[a]phenanthren-17-yl)-2-oxoethyl) carbonate [Example 85]” to “Conjugate of HA and 5-aminopentyl (2-((8S,9S,10R,13S,14S,17R)-17-hydroxy-10,13-dimethyl-3,11-dioxo-2,3,6,7,8,9,10,11,12,13,14,15,16,17-tetradecahydro-1H-cyclopenta[a]phenanthren-17-yl)-2-oxoethyl) carbonate [Example 91]”, the Release rate rises from 7.65 %/day to 11.66 %/day.

With “Conjugate of HA and 5-aminopentyl (2-((8S,9S,10R,13S,14S,17R)-17-hydroxy-10,13-dimethyl-3,11-dioxo-6,7,8,9,10,11,12,13,14,15,16,17-dodecahydro-3H-cyclopenta[a]phenanthren-17-yl)-2-oxoethyl) carbonate [Example 89]” the Release rate was 8.12 %/day.
